Test results published in PMC6890793, “How water-mediated hydrogen bonds affect chlorophyll a/b selectivity in Water-Soluble Chlorophyll Protein” (Scientific Reports, 2019).

Molecular target: the molecule itself
Test: crystal structure; Chl b-reconstituted WSCP crystallised by hanging-drop vapour diffusion (Lv-wt: 0.1 M Na/K phosphate pH 6.0, 3.0 M (NH4)2SO4, 4.7% sucrose; Bo-wt: 0.1 M (NH4)H2PO4 pH 4.5, 10% PEG 3350); data at 100 K; molecular replacement with the Chl a complexes

B1: Water-Soluble Chlorophyll Protein (WSCP) from Brassica oleracea var. botrytis, wild type, reconstituted with Chl b (natural protein)
chain: REQVKDSNGNPVKRGAKYFIQPAKSNGGGLVPAAINILPFCPLGITQTLLPYQPGLPVSFGYEPVIVGTDYIYTSTTINIEFRSEIWPVCNELSKLWAVDVSSSAAKEPAIIIGGERTAPNSLFKIEEATGAHTYKLTTSSGTVGTIPGPWLGAPQLIATNDDAKTLFVKFVKVDDDAT
notes: Water-Soluble Chlorophyll Protein (WSCP), Brassica oleracea var. botrytis (cauliflower), wild type; also called Bo-wt; Chl b Bo-wt; source: E. coli, overexpressed, purified; apoprotein reconstituted with Chl b
binding result: binds
